Assay results published in publication PMC12462963, “Quorum Sensing Inhibits Type III‐A CRISPR‐Cas System Activity Through Repressing Positive Regulators SarA and ArcR in Staphylococcus Aureus”.

T1: ArcR-His6 (Staphylococcus aureus TZ0912) (UniProt Q2FUY1)
T1 sequence: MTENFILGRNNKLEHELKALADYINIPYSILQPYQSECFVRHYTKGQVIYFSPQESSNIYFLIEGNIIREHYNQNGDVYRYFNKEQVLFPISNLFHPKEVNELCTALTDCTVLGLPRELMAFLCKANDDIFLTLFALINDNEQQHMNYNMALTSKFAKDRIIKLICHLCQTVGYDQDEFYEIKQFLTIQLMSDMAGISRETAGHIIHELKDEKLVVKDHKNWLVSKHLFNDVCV

T2: ArcR-His6 (Staphylococcus aureus TZ0912, UniProt Q2FUY1 1-234)
T2 sequence: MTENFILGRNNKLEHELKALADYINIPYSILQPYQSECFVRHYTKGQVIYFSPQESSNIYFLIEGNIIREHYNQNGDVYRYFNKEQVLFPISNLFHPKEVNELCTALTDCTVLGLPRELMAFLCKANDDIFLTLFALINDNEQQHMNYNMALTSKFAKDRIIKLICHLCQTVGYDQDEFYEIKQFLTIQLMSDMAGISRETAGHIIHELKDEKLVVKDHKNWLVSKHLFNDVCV

T3: AgrA-His6 (Staphylococcus aureus TZ0912, UniProt Q5HEG2 1-238)
T3 sequence: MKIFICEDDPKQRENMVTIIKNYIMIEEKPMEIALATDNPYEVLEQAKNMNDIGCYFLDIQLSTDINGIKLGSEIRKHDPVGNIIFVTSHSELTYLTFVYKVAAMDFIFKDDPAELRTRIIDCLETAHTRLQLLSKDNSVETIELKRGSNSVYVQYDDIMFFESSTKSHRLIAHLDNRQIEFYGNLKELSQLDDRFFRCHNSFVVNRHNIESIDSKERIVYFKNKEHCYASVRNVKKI

B1: Pcas-132-113 (Table S2: -151-132) (dsDNA)
DNA 1: GTGAAGTTATTAGTAAACTT
DNA 2: AAGTTTACTAATAACTTCAC
B2: Pcas-142-103 (Table S2: -161-122) (dsDNA)
DNA 1: TAATGAGAATGTGAAGTTATTAGTAAACTTAGCAAAAGAT
DNA 2: ATCTTTTGCTAAGTTTACTAATAACTTCACATTCTCATTA
B3: Pcas-133-118 (Table S2: -152-137) (dsDNA)
DNA 1: TGTGAAGTTATTAGTA
DNA 2: TACTAATAACTTCACA
B4: agr P2 promoter (dsDNA)
DNA 1: TACATTTAACAGTTAAGTATTTATTTCCTACAGTTAGGCAATATAATG
DNA 2: CATTATATTGCCTAACTGTAGGAAATAAATACTTAACTGTTAAATGTA
B5: Pcrispr1+4+20 (dsDNA)
DNA 1: TGTCAAAAAAAGTGACA
DNA 2: TGTCACTTTTTTTGACA
B6: Pcrispr1-26+24 (dsDNA)
DNA 1: CTTAATATATAGAAAATTATCATAATATTTGTCAAAAAAAGTGACATTTC
DNA 2: GAAATGTCACTTTTTTTGACAAATATTATGATAATTTTCTATATATTAAG
B7: Pcas-137-108 (Table S2: -156-127) (dsDNA)
DNA 1: AGAATGTGAAGTTATTAGTAAACTTAGCAA
DNA 2: TTGCTAAGTTTACTAATAACTTCACATTCT

Assays:
[1] = target: T1, ArcR-His6 (Staphylococcus aureus TZ0912); assay: EMSA; details: EMSA: 750 mM NaCl, 50 mM Tris-HCl pH 7.4, 0.5 mM DTT, 0.5 mM EDTA (as printed for binding buffer), 20 ng probe in 20 uL, 30 min 37 C; 6% gel, 0.5x TBE
[2] = target: T2, ArcR-His6; assay: EMSA; 7.2 uM; EMSA: 750 mM NaCl, 50 mM Tris-HCl pH 7.4, 0.5 mM DTT, 0.5 mM EDTA (as printed for binding buffer), 20 ng probe in 20 uL, 30 min 37 C; 6% gel, 0.5x TBE; details: protein: recombinant; tags: His6 (pET28a NdeI/XhoI); chain copies: 2; label: 5'-FAM; blunt
[3] = target: T2, ArcR-His6; assay: EMSA; EMSA: 750 mM NaCl, 50 mM Tris-HCl pH 7.4, 0.5 mM DTT, 0.5 mM EDTA (as printed for binding buffer), 20 ng probe in 20 uL, 30 min 37 C; 6% gel, 0.5x TBE; details: protein: recombinant; tags: His6 (pET28a NdeI/XhoI); chain copies: 2; label: 5'-FAM; blunt
[4] = target: T3, AgrA-His6; assay: EMSA; shift from 0.25 uM; EMSA: 750 mM NaCl, 50 mM Tris-HCl pH 7.4, 0.5 mM DTT, 0.5 mM EDTA (as printed for binding buffer), 20 ng probe in 20 uL, 30 min 37 C; 6% gel, 0.5x TBE; details: protein: recombinant; tags: His6 (pET28a NdeI/XhoI); chain copies: 2; label: 5'-FAM; blunt

Molecule	binding [1]	binding result [2]	further results
GGGAGAACTAGAGATAGAATTTGGAAAAAGATTGTTGTAAATAAAATTATTAATCAATCAAAATGTTTAGAAAACAATTTACATAATGAGAATGTGAAGTTAT (double strand) [Pcas-222-123 (Table S2: -241-142)]	no binding		
CATATATAATAAGTATTTAATTTTAATATATTTAAACTAATAATAATCAAATATACACTATTAACTGAAGATTTCATTGACTTGACATTTATTAAACTTT (double strand) [Pcrispr1-276-177]	no binding		
ATATAGTAGCATGGTGTTAGTTGTCACAGTTTTTGACAGCCAAAATAACACTTGAACCTTTGTGGTTATGCTATTTATTAAAGTATCT (double strand) [Pcrispr1+25+112]	no binding		
B1		no binding	
B2		binds	
B3			binding result [3]: no binding
B4			binding result [4]: binds
B5			binding result [3]: no binding
B6		binds	
B7		binds	
